Experiments:
HLA-B*15:01 [1] = assay: IEDB peptide-MHC binding, purified MHC/direct/fluorescence; filed as Kd, often an IC50 or EC50 that approximates it; ≥ and ≤ were set here for values at or beyond the usual limits of such assays; conditions: source organism: Reston ebolavirus - Reston
HLA-B*58:01 [2] = assay: as above; conditions: source organism: Reston ebolavirus - Reston
HLA-A*02:01 = assay: IEDB peptide-MHC binding, purified MHC/competitive/fluorescence; filed as Kd, often an IC50 or EC50 that approximates it; ≥ and ≤ were set here for values at or beyond the usual limits of such assays
HLA-A*26:01 = assay: as above
HLA-A*69:01 = assay: as above
HLA-B*15:17 = assay: as above
HLA-B*18:01 = assay: as above
HLA-B*27:03 = assay: as above
HLA-B*35:01 = assay: as above
HLA-B*39:01 = assay: as above
HLA-B*51:01 = assay: as above
HLA-B*57:01 [3] = assay: as above
HLA-C*03:03 = assay: IEDB peptide-MHC binding, purified MHC/direct/fluorescence; filed as Kd, often an IC50 or EC50 that approximates it; ≥ and ≤ were set here for values at or beyond the usual limits of such assays
HLA-B*46:01 = assay: IEDB peptide-MHC binding, purified MHC/competitive/fluorescence; filed as Kd, often an IC50 or EC50 that approximates it; ≥ and ≤ were set here for values at or beyond the usual limits of such assays
HLA-A*01:01 = assay: IEDB peptide-MHC binding, purified MHC/competitive/radioactivity; filed as Kd, often an IC50 or EC50 that approximates it; ≥ and ≤ were set here for values at or beyond the usual limits of such assays; conditions: source organism: Dengue virus 2 Jamaica/1409/1983
HLA-B*53:01 = assay: as above; conditions: source organism: Dengue virus 2 Jamaica/1409/1983
HLA-B*57:01 [4] = assay: as above; conditions: source organism: Dengue virus 2 Jamaica/1409/1983
HLA-B*58:01 [5] = assay: as above; conditions: source organism: Dengue virus 2 Jamaica/1409/1983
HLA-B*08:01 = assay: IEDB peptide-MHC binding, purified MHC/competitive/fluorescence; filed as Kd, often an IC50 or EC50 that approximates it; ≥ and ≤ were set here for values at or beyond the usual limits of such assays
HLA-A*03:01 [6] = assay: IEDB peptide-MHC binding, purified MHC/direct/fluorescence; filed as Kd, often an IC50 or EC50 that approximates it; ≥ and ≤ were set here for values at or beyond the usual limits of such assays
HLA-A*31:01 = assay: IEDB peptide-MHC binding, purified MHC/competitive/fluorescence; filed as Kd, often an IC50 or EC50 that approximates it; ≥ and ≤ were set here for values at or beyond the usual limits of such assays
HLA-A*03:01 [7] = assay: as above; conditions: source organism: Escherichia coli 536
HLA-A*02:03 = assay: IEDB peptide-MHC binding, purified MHC/direct/fluorescence; filed as Kd, often an IC50 or EC50 that approximates it; ≥ and ≤ were set here for values at or beyond the usual limits of such assays
HLA-A*02:12 = assay: as above
HLA-A*02:16 [8] = assay: as above
HLA-A*02:19 = assay: as above
HLA-A*24:03 = assay: as above
HLA-B*15:01 [9] = assay: IEDB peptide-MHC binding, purified MHC/competitive/fluorescence; filed as Kd, often an IC50 or EC50 that approximates it; ≥ and ≤ were set here for values at or beyond the usual limits of such assays
HLA-B*15:42 = assay: as above; conditions: source organism: Zaire ebolavirus
HLA-B*45:06 = assay: as above; conditions: source organism: Zaire ebolavirus
HLA-B*83:01 = assay: as above; conditions: source organism: Zaire ebolavirus
HLA-A*11:01 [10] = assay: IEDB peptide-MHC binding, purified MHC/direct/fluorescence; filed as Kd, often an IC50 or EC50 that approximates it; ≥ and ≤ were set here for values at or beyond the usual limits of such assays
HLA-A*02:16 [11] = assay: IEDB peptide-MHC binding, purified MHC/competitive/fluorescence; filed as Kd, often an IC50 or EC50 that approximates it; ≥ and ≤ were set here for values at or beyond the usual limits of such assays; conditions: source organism: Mycobacterium tuberculosis C
HLA-A*02:11 = assay: IEDB peptide-MHC binding, purified MHC/direct/fluorescence; filed as Kd, often an IC50 or EC50 that approximates it; ≥ and ≤ were set here for values at or beyond the usual limits of such assays; conditions: source organism: Limestone Canyon virus
HLA-A*29:02 = assay: as above; conditions: source organism: Limestone Canyon virus
HLA-A*68:02 = assay: as above; conditions: source organism: Limestone Canyon virus
HLA-B*07:02 = assay: as above; conditions: source organism: Orthohantavirus puumalaense
HLA-C*07:02 = assay: as above; conditions: source organism: Human herpesvirus 4 strain B95-8
HLA-A*11:01 [12] = assay: IEDB peptide-MHC binding, purified MHC/competitive/fluorescence; filed as Kd, often an IC50 or EC50 that approximates it; ≥ and ≤ were set here for values at or beyond the usual limits of such assays
[13] = source organism: Reston ebolavirus
[14] = source organism: Mycobacterium tuberculosis variant bovis BCG str. Pasteur 1173P2
[15] = source organism: Escherichia coli 536
[16] = source organism: Mycobacterium tuberculosis C
[17] = source organism: Zaire ebolavirus
[18] = source organism: Bacillus anthracis str. A0488
[19] = source organism: Limestone Canyon virus
[20] = source organism: Orthohantavirus puumalaense
[21] = source organism: Escherichia coli
[22] = source organism: Influenza A virus (A/Belfast/53582/2004(H3N?))
[23] = source organism: Vibrio vulnificus

## QAFEAGIDF
HLA-B*15:01 [1]
  Kd: 76.6 nM
HLA-B*58:01 [2]
  Kd: 1030 nM
HLA-A*02:01; [13]
  Kd: ≥ 20000 nM
HLA-A*26:01; [13]
  Kd: ≥ 20000 nM
HLA-A*69:01; [13]
  Kd: ≥ 20000 nM
HLA-B*15:17; [13]
  Kd: ≥ 20000 nM
HLA-B*18:01; [13]
  Kd: ≥ 20000 nM
HLA-B*27:03; [13]
  Kd: ≥ 20000 nM
HLA-B*35:01; [13]
  Kd: 0.2 nM
HLA-B*39:01; [13]
  Kd: ≥ 20000 nM
HLA-B*51:01; [13]
  Kd: ≥ 20000 nM
HLA-B*57:01 [3]; [13]
  Kd: ≥ 20000 nM

## SAFGGGNAF
HLA-C*03:03; [14]
  Kd: ≤ 1 nM
HLA-B*46:01; [14]
  Kd: 36.8 nM

## LTSSQQKADW
HLA-A*01:01
  Kd: 11000 nM
HLA-B*53:01
  Kd: ≥ 21800 nM
HLA-B*57:01 [4]
  Kd: 100 nM
HLA-B*58:01 [5]
  Kd: 59.2 nM

## LIAVPHTKL
HLA-B*08:01; [15]
  Kd: ≥ 20000 nM

## VVYKTGAIR
HLA-A*03:01 [6]; source organism: Mycobacterium leprae
  Kd: 751 nM
HLA-A*31:01; [16]
  Kd: 59.4 nM

## KIPATVIAR
HLA-A*03:01 [7]
  Kd: 31 nM
HLA-A*31:01; [15]
  Kd: 34.4 nM

## FTFDLTALK
HLA-A*02:03; [17]
  Kd: ≥ 20000 nM
HLA-A*02:12; [17]
  Kd: ≥ 20000 nM
HLA-A*02:16 [8]; [17]
  Kd: ≥ 20000 nM
HLA-A*02:19; [17]
  Kd: ≥ 20000 nM
HLA-A*03:01 [6]; source organism: Ebola virus - Gabon (1994-1997)
  Kd: 229 nM
HLA-A*24:03; [17]
  Kd: ≥ 20000 nM
HLA-A*02:01; [17]
  Kd: ≥ 20000 nM
HLA-A*31:01; [17]
  Kd: ≥ 20000 nM
HLA-B*15:01 [9]; [17]
  Kd: ≥ 20000 nM
HLA-B*15:17; [17]
  Kd: ≥ 20000 nM
HLA-B*15:42
  Kd: ≥ 5000 nM
HLA-B*18:01; [17]
  Kd: ≥ 20000 nM
HLA-B*27:03; [17]
  Kd: ≥ 20000 nM
HLA-B*39:01; [17]
  Kd: ≥ 20000 nM
HLA-B*45:06
  Kd: ≥ 5000 nM
HLA-B*46:01; [17]
  Kd: ≥ 20000 nM
HLA-B*51:01; [17]
  Kd: ≥ 20000 nM
HLA-B*57:01 [3]; [17]
  Kd: ≥ 20000 nM
HLA-B*83:01
  Kd: ≥ 5000 nM

## KTALTGAMR
HLA-A*11:01 [10]; source organism: Yellow fever virus
  Kd: 15.1 nM
HLA-A*31:01; source organism: Yellow fever virus 1899/81
  Kd: 16 nM

## IVVDNTSAF
HLA-B*15:01 [9]; [18]
  Kd: 70.4 nM
HLA-B*35:01; [18]
  Kd: 0.4 nM

## TMDPSVRVL
HLA-C*03:03; [16]
  Kd: 30 nM
HLA-A*02:01; [16]
  Kd: 41.4 nM
HLA-A*02:16 [11]
  Kd: 217 nM

## SPVMGVIGF
HLA-A*02:03; [19]
  Kd: ≥ 20000 nM
HLA-A*02:11
  Kd: ≥ 20000 nM
HLA-A*02:12; [19]
  Kd: ≥ 20000 nM
HLA-A*02:16 [8]; [19]
  Kd: ≥ 20000 nM
HLA-A*02:19; [19]
  Kd: ≥ 20000 nM
HLA-A*03:01 [6]; [19]
  Kd: ≥ 20000 nM
HLA-A*24:03; [19]
  Kd: ≥ 20000 nM
HLA-A*29:02
  Kd: ≥ 20000 nM
HLA-A*68:02
  Kd: ≥ 20000 nM
HLA-B*07:02
  Kd: 60.7 nM
HLA-A*02:01; [20]
  Kd: ≥ 20000 nM
HLA-A*26:01; [20]
  Kd: ≥ 20000 nM
HLA-A*69:01; [20]
  Kd: ≥ 20000 nM
HLA-B*15:01 [9]; [20]
  Kd: ≥ 20000 nM
HLA-B*15:17; [20]
  Kd: ≥ 20000 nM
HLA-B*18:01; [20]
  Kd: ≥ 20000 nM
HLA-B*27:03; [20]
  Kd: ≥ 20000 nM
HLA-B*35:01; [20]
  Kd: 0.5 nM
HLA-B*39:01; [20]
  Kd: ≥ 20000 nM
HLA-B*46:01; [20]
  Kd: ≥ 20000 nM
HLA-B*51:01; [20]
  Kd: ≥ 20000 nM
HLA-B*57:01 [3]; [20]
  Kd: ≥ 20000 nM

## HLAGYSGVL
HLA-B*08:01; [21]
  Kd: 1900 nM
HLA-B*15:01 [9]; [21]
  Kd: 354 nM
HLA-B*39:01; [21]
  Kd: 2.5 nM

## WILDRLFFK
HLA-A*03:01 [6]; [22]
  Kd: 52.7 nM
HLA-A*11:01 [10]; [22]
  Kd: 2.1 nM
HLA-A*31:01; source organism: Influenza A virus (A/Memphis/1/1978(H1N1))
  Kd: 244 nM

## FYNIPPMPL
HLA-C*03:03; source organism: Human herpesvirus 4 strain B95-8
  Kd: 51 nM
HLA-C*07:02
  Kd: 43 nM

## SSFSFGGFTFK
HLA-A*11:01 [12]; source organism: Influenza A virus H3N2
  Kd: 0.5 nM

## SSGVFHSYK
HLA-A*03:01 [6]; [23]
  Kd: 9.7 nM
HLA-A*11:01 [10]; [23]
  Kd: ≤ 1 nM
HLA-A*31:01; source organism: Vibrio vulnificus YJ016
  Kd: 3.5 nM

## TVFSLLLFY
HLA-A*11:01 [12]; source organism: Yersinia pestis Nepal516
  Kd: 500 nM
